Laboratory results as given in the Human Domainome abundance scans (Beltran et al. 2025).

B1: DnaJ homolog subfamily C member 2, residues 451 to 503; numbered along this chain, Q99543 (parent)
chain: SKNWSEDDLQLLIKAVNLFPAGTNSRWEVIANYMNIHSSSGVKRTAKDVIGKA

Variants of: B1
Test: abundance fitness (aPCA) (normalised: wild type 0, dead -1); higher = more abundant; growth selection in yeast, the domain comes from the species named
Conditions: Homo sapiens

Abundance fitness, by site and new letter:
A46: M -0.22; W -0.348; S -0.099; N -0.567; H -0.309; T -0.114; E -0.067; P -0.083; K -0.087; I -0.167; Y -0.305; L -0.355; Q -0.089; C -0.094; F -0.366; R -0.222; G -0.246
N35: K -0.871; Y -0.775; V -0.815; G -0.646; P -1.08; D -0.685; I -0.86; S -0.186; R -0.59; C -0.587; W -0.897; T -0.345; L -1.07; M -0.56; H -0.519; Q -0.558
E28: G -0.397; Y -0.866; C -0.49; V -0.259; D -0.089; S -0.013; F -0.376; A -0.278; Q 0.009; W -0.592; K -0.237; M -0.44; R -0.138; T -0.351; P -0.627; N -0.312
T45: I -0.33
N24: M -0.056; T -0.024; W -0.279; R -0.045; V -0.068; L -0.116; P -0.066; S -0.043; Q -0.112
G41: N -0.143; P -0.114; L -0.186; T -0.072; F 0.064; C -0.103; M -0.035; E -0.151; Y -0.25; D -0.066; I -0.119; W -0.645; H -0.129; K 0.001; A 0.089; R -0.061
S25: W -0.219; N -0.384; F -0.272; L -0.239; A -0.094; I -0.788; Y -0.281; Q -0.235; C -0.04; T -0.144; D 0.062; K -0.003; G -0.077; E -0.159
W27: P -0.247; D -0.419; G -0.138; H -0.537; N -0.581; R -0.791; C -0.261; M -0.323; T -0.475; I -0.286; L -0.597; F -0.207; Q -0.726; Y -0.299; V -0.444; A -0.114; E -0.168
M34: G -0.977; R -0.963; V 0.003; Y -0.722; Q -0.696; E -0.816; I -0.011; F -0.317; D -0.833; A -0.895; P -0.553; W -0.666; L -0.056; C -0.136; H -0.683
K47: P -0.133; I -0.017; F -0.22; M -0.111; A 0.054; C -0.206; R -0.056; N -0.065; E 0; Q 0.057; T 0.08; G -0.039; S 0.033; L -0.097; V -0.095; Y -0.212; W -0.266
S40: P -0.52; Y -0.504; T -0.166; R -0.286; V -0.484; D -0.282; L -0.306; W -0.646; H -0.125; E -0.336; Q -0.158; N -0.16; F -0.559; C -0.217; K -0.302; A 0.009; M -0.536
R26: G -0.74; S -0.934; A -0.557; H -0.831; T -0.52
S39: W -0.183; H 0.05; I -0.197; F -0.362; D 0.03; L -0.095; Y -0.339; P 0.001; R 0; E 0.076; G 0.016; N -0.076; M -0.122; Q -0.102; V -0.158; A 0.122; K -0.086
K43: N -0.025; F -0.179; H -0.173; I -0.147; C -0.06; L -0.067; D -0.015; G -0.302; T -0.006; W -0.259; A -0.133; M -0.146; E -0.096; R -0.045; P -0.209; S -0.153
N32: G -0.2; D -0.016; A -0.04; T -0.13; W -0.38; C -0.524; Y -0.507; I -0.66; K -0.083; L -0.315; M -0.302; P -0.93; H 0.076; R -0.095; E 0.061; F -0.542; Q -0.103
D48: G -0.554; Q -0.105; R -0.708; A -0.262; T -0.563; M -0.396; V -0.759; L -0.838; W -0.845; E 0.042; S -0.212; K -0.973; N -0.623; C -0.393; F -1.06; P -1.01; H -0.539
Y33: M -0.882; S -0.87; W -0.073; H -0.414; G -0.981; V -0.847; P -0.938; R -0.865; L -0.914; N -0.968; E -0.805; A -0.752; C -0.996; T -0.915; K -0.568; Q -0.746; D -0.977; I -1.02
V42: F -0.145; A -0.685; I 0.093
H37: Y -0.044
V29: W -0.082; L -0.051; E -0.103; N -0.166; P -0.696; A 0.082; D 0.16; T 0.008; C -0.071; Q 0.104; R 0.043; S 0.01; H -0.096; I -0.127; K -0.113; Y -0.166; F -0.32; M 0.078; G -0.026
I36: Q 0.079; K 0.208; Y -0.141; L 0.049; N 0.049; H -0.135; P -0.994; F -0.116; S 0.014; G -0.009; W -0.134; C 0.043; T -0.007
A31: H -0.919; K -0.357; I -0.82; R -0.384; M -0.66; S -0.179; Y -1.08; G -0.607; T 0.051; D -0.831; V -0.397; P -0.837; F -1.01; Q -0.549; W -0.857; L -0.463; N -0.768; E -0.859
I30: R -0.951; W -0.839; Y -0.923; D -0.729; P -0.94; L -0.789; Q -1; M -0.535; T -0.987; G -0.905; F -0.635; E -0.955; S -0.947; V -0.019; A -0.651; K -0.873; N -0.999
S38: Q -0.176; R -0.435; A -0.224; P -0.936; E -0.609; Y -1.03; H -0.525; T -0.116; K -0.517; I -1.04; N -0.162; F -0.822; W -1; C -0.169; L -0.86; D -0.61; G -0.069; V -0.755
